Test results taken from article PMC10716449.

Target: T1, ybbR-CENP-B-His6 (full length, JF549-labelled for smTIRF) (UniProt P07199)
T1 sequence: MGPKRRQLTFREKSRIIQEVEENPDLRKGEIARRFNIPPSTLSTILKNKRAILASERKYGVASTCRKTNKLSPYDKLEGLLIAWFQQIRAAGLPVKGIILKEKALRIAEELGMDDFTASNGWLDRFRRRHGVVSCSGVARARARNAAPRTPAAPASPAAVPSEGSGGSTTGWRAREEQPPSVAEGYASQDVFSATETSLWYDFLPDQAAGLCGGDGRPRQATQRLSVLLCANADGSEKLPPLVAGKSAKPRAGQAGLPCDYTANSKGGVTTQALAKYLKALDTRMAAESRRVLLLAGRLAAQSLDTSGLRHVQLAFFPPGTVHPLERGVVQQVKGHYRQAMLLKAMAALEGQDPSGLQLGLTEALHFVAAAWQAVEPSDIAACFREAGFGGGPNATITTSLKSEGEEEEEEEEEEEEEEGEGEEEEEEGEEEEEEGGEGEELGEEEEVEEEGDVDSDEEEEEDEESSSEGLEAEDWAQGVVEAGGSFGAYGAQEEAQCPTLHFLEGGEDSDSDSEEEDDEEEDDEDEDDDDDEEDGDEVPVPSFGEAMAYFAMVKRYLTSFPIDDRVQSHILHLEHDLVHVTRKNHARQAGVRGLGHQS
Assay: single-molecule colocalization (smTIRF)
Settings: smTIRF: about 5 nM CENP-B, 150 mM salt, EMSA: 10 mM Tris pH 7.5, 130 mM KCl, 3.2% glucose, 30 min at room temperature

Substance: GATCGGTCTCATAGCCTTCGTTGGAAACGGGAGAATCCCGGTGCCGAGGCCGCTCAATTGGTCGTAGACAGCTCTAGCACCGCTTAAACGCACGTACGCGCTGTCCCCCGCGTTTTAACCGCCAAGGGGATTACTCCCTAGTCTCCAGGCACGTGTCAGATATATACATCCTGTCACACTGTGGATC (double strand) [H3 1x601 BB mononucleosome]
- binding signal (s (tau off,2)) (tau_off,1 6.87 s (66%), A2 34%, amino-C6-dT on reverse strand, 5% PAGE in 0.25x TBE): 48.3

Substance: CENP-A 12x601 chromatin fiber DA3BB (1 B-Box at N6)
- binding signal (s (tau off,2)) (150 mM KCl, tau_off,1 4.9 s (67%), A2 33%, amino-C6-dT, 5% PAGE in 0.25x …): 51.4

Substance: GATCGGTCTCATAGCCTTCGTTGGAAACGGGAGAATCCCGGTGCCGAGGCCGCTCAATTGGTCGTAGACAGCTCTAGCACCGCTTAAACGCACGTACGCGCTGTCCCCCGCGTTTTAACCGCCAAGGGGATTACTCCCTAGTCTCCAGGCACGTGTCAGATATATACATCCTGTCACACTGTGGATC (double strand) [CENP-A 1x601 BB mononucleosome]
- binding signal (s (tau off,2)) (tau_off,1 6.8 s (51%), A2 49%, amino-C6-dT on reverse strand (smTIRF), 5% PAGE in 0.25x TBE): 50.2

Substance: GATCGGTCTCATAGCCTGGAGAATCCCGGTGCCGAGGCCGCTCAATTGGTCGTAGACAGCTCTAGCACCGCTTAAACGCACGTACGCGCTGTCCCCCGCGTTTTAACCGCCAAGGGGATTACTCCCTAGTCTCCAGGCACGTGTCAGATATATACATCCTGTCACACTGTGGATC (double strand) [H3 1x601 mononucleosome (no B-Box)]
- binding signal (s (tau off,2)) (tau_off,1 3.4 s (51%), A2 49%, amino-C6-dT on reverse strand, 5% PAGE in 0.25x TBE): 15.2

Substance: H3 12x601 chromatin fiber DA3BB (1 B-Box at N6)
- binding signal (s (tau off,2)) (150 mM KCl, tau_off,1 3.6 s (47%), A2 52%, amino-C6-dT, 5% PAGE in 0.25x …): 17.6
